# Laboratory results taken from the nanobody polyreactivity screen of Harvey et al. (2022).
# Test: yeast display, Sf9 membrane polyspecificity reagent, FACS + sequencing; frameworks hold sequencing errors
# Method in brief: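 Nanobodies from a synthetic yeast display library (Saccharomyces cerevisiae BJ5465), induced 36–48 hours with galactose, were stained 1 hour at 4 °C with 10% biotinylated, detergent-solubilized Sf9 membrane reagent, enriched on streptavidin microbeads, then FACS-sorted. Anti-HA (expression) and streptavidin (reagent binding) fluorescence set low and high (top ~1%) gates. Polyreactivity labels come from the gate of origin. Genes were colony-PCR amplified, MiSeq 2 × 250 sequenced and filtered by CDR length.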
row,Sequence,polyreactivity (PSR sort gate)
1,QVQLVESGGGLVQAGGILRLSCAASGSIFYGNDMGWYRQEPGKEREFVAGISWSGGSTYYADSVKGRFTISRDNAKNTVYVQMNSLKPEETAVYYCAAVRWGSYTLSDDYWGQGTQVTVSS,low polyreactivity
2,QVQLVESGGGLVQAGGILRLSCAASGSIYKPNTMGWYRQAPGKERELVAAITRGGRTKYADSVKGRFTISRDNAKNTVYLQMNSLKPEDTAVYYCNKARYTVISYDEYDDWGQGTQVTGSS,high polyreactivity
3,QVQLVESGGGLVQAGGILRLSCAASGSIYSGYAMGWYIQAPAKEREFVAAITSTSGSTYYADSVKVRFTISRDNAKNSVYLQMNSLKPEDTAVYYWAGYRYRYYSYDSWGQGTHVTVSS,high polyreactivity
4,QVQLVESGGGLVQAGGILRLSCAASGSTFAYNAMGWYRQEPGKERELFAAISWSGGTTYYADSVKGRFTISRDNAKTTVYLQMNSLKPEDTAVYYCNAVYYPSYQQVRAHDYWGQGTQVTVSS,high polyreactivity
5,QVQLVESGGGLVQAGGILRLSCAASGSTFDYNTMGWYRQAPGKERELVAAISESGGSTYYADSVKGRFTISRDNAKNTVYLQMNSLKPEDTAVYYCATDDFGGYFGEYDYWGQGTQVTVSS,low polyreactivity
6,QVQLVESGGGLVQAGGILRLSCAASGSTFGYYTMGWYRQAPGKEREFVAAITRRGGSTYYADSVKGRFTISRDNAKNTVYLQMNSLKPEDTAVYYCAAESRYQPHYGYWGQGTQVTVSS,high polyreactivity
7,QVQLVESGGGLVQAGGILRLSCAASGSTLTYYTMGWYRQAPGKERELVAHISWSSGRTYYADSVKGRFTISRDNAKNTVYLQMNSLKPEDTAVYYCNADRTYYRGLDYWGQGTQVTVSS,high polyreactivity
8,QVQLVESGGGLVQAGGILRLSCAASGSTMGYYPMGWYRQEPGKERELVAAIRYSDGNTYYADSVKGRFTISRDTAKNTVYLQMNSLKPEDTAVYYCAADGGYYGRDYWGQGTQVTVSS,high polyreactivity
9,QVQLVESGGGLVQAGGILRLSCAASGYIFVRNAMGWYRQAPGKERELVAAISGSGGSTYYADSVKGRFTISRDNAKNTVYLQMNRLKPEDTEVYYCAADYATVTWRGIAYDYWGQGTQVTVSS,low polyreactivity
10,QVQLVESGGGLVQAGGILRLSCAATGTTFSYYPMGWYRQAPGKERELVAAITNGGSTYYADSVKGRFTISRDNAKNTVYLQMNSLKPEDTAVYYCAADVSYWPYARYQRYPRYDYWGQGTQVTVSS,low polyreactivity
11,QVQLVESGGGLVQAGGILRLSCASSGITFRQYAMEWYRQAPGKERELVATITSRGGSTYYADSVKGRFTISRDNAKNSVYLQMISLKPEDTADYYCAAKTPTKDRGSDFDYWGQCTQVTVSS,high polyreactivity
12,QVQLVESGGGLVQAGGILRLSCASSGSICYWYAMGWYRQAPGKERELVASITGGGSKKYAESLKGRFTISRDNANNSVYLQINSLKREDTAVYYCAARYGQPWGSRYYYWGQVTQVTVSS,high polyreactivity
13,QVQLVESGGGLVQAGGILRLSCDASGSTFVLYAMGWYRQAPGKERELVAAIRKSGGSTYYADSVKGRFTISRDNAKIYVYLQMNSLKPEDTAVYYCNATNYIYEYHYWGQGTQVTVSS,low polyreactivity
14,QVQLVESGGGLVQAGGILRLSFAASGRIFTHYAMAGYRPAPGKERELVAAIRYSGGRTYYADSVKGRFTLSRDNAKNTVYLQMNSRKPEDTAVYYCAAEGFGGSFRSFYTIYDYWGQGTLVTVSS,high polyreactivity
15,QVQLVESGGGLVQAGGILRLSSDTSRSIFSTNGMGWYRPAHGKERELVAAMSTGGRKYYADSVKVRFTISRDNAKNTVYLQMNSLIPEDSAVFYCAIDHWTTSYDEGYYWGQGTQVTVSW,low polyreactivity
16,QVQLVESGGGLVQAGGILRLSWAASGSTFTAYAMGWYRQAPGKERELVAAINTSGGNTYYADSVKGRFTISRDNAKNTVYFQMNSLKPEDTAVYYCAADYKARYSEKFDYWGQGTQVSVSS,low polyreactivity
17,QVQLVESGGGLVQAGGILRLTCAASGRIFIYYAMGWYRQAPGKERELVAAISWGGGRTYYADSVKGRFTISRDNAKNTVYLQMNSLKPEDTAVYNCAAGVYTGQHEYDYWGQGTQVTVSS,low polyreactivity
18,QVQLVESGGGLVQAGGILSLSSAAYGRISVFYTMGWYIQAPGKERELVAVIRTAGGRTKYADSVKGRFTISRDNAKNTVYLQMNSLKPEDTAVYYCADRVVRYGYKYYYWGQGTQVTVSS,low polyreactivity
19,QVQLVESGGGLVQAGGNLRLSCAASGFIFTRYAMGWYRPAPGKERELVAAISTSGDRTYYADSVKGRFTISRDNAKNTVYVQMHSLKPEDTAVYFCAVVRRRSVGRYVYWGQGTQVTVSS,high polyreactivity
20,QVQLVESGGGLVQAGGRHRLSCAASGRTFWGYGMGWYRQPPGKDRELVATISSGGSTYYEDSVKGRFTISRDNAMNTVYLQMNSLKPEDTAVYYCAARPPRSYWRYQSDYWGLGTQVTVSS,high polyreactivity
21,QVQLVESGGGLVQAGGRIRLSCAASGSTYGLNAMGWYRQDPGNEREMVAAITFISGSTNYADSVKGRFSISRDNAKNTVYLQMNSLKPEDTAVYYCAGDSVYYAGYDDDYWGLGTQVTVSS,low polyreactivity
22,QVQLVESGGGLVQAGGRLGLSCAASGRSFPWYTMGWYRQATGKERELVAAISSSGSTTYYADSVNGRFTISRDNAKITVYLQMNSLKPEDTAVYYCNKADPPEYDYWGQGTPVTVSS,high polyreactivity
